Data published in article PMC3573116 (PLoS Pathogens, 2013).

Target: T1, DENV2 D2S10 envelope (E) protein on virions (dengue virus 2 (DENV2), strain D2S10)
T1 construct: also called DENV2 virions
Assay: ELISA
Conditions: one partner purified

Row | Binder | Kd
1 | human MAb 82.11 LALA (IgG1) (antibody, V domains shown, source: HEK-293T, purified (protein A, size-exclusion chromatography)) VH: QAHLVESGGGVVQPGRSLRLSCAASAFNFSTNAMHWVRQAPGKGLEWVAVISYDGSHKYYADSVKGRFTISRDNSKNTLYLQMNSLRAADTAVYYCATVGVLTWPVNAEYFHHWGQGSLVSVSS VL: QSVLTQPPSVSGAPGQRVTISCTGSSSNIGAGYDVHWYQQLPGTAPKLLICGNNNRPSGVPDRFSGSKSGTSASLAITGLQAEDEADYYCQSYDSSLTGVVFGGGTKLTVL | 0.91 nM
2 | chimeric human-mouse MAb E18 (human IgG1), non-modified (antibody, V domains shown, source: HEK-293T, transfected, purified from supernatant (protein A)) VH: QIQLVQSGPELKKPGETVKISCKASGYTFTDYSMHWVKQAPGKGLKWMGWFNTETGEPTYADDFKGRFAFSLETSASTAFLQINNLKNEDTATYFCARGGDFYSVDYWGQGTSVTVSS VL: DIQMTQTTSSLSASLGDRVTISCRASQDITNYLNWYQQKPDGTVKLLIYYTSGLHSGVPSRFSGSGSGTDYSLTISNLEQEDIATYFCQQGNTLPPTFGGGTKLEIK | 2.74 nM
3 | chimeric human-mouse MAb E18 N297Q (human IgG1, aglycosylated) (antibody, V domains shown, source: HEK-293T, transfected, purified from supernatant (protein A)) VH: QIQLVQSGPELKKPGETVKISCKASGYTFTDYSMHWVKQAPGKGLKWMGWFNTETGEPTYADDFKGRFAFSLETSASTAFLQINNLKNEDTATYFCARGGDFYSVDYWGQGTSVTVSS VL: DIQMTQTTSSLSASLGDRVTISCRASQDITNYLNWYQQKPDGTVKLLIYYTSGLHSGVPSRFSGSGSGTDYSLTISNLEQEDIATYFCQQGNTLPPTFGGGTKLEIK | 3.46 nM
4 | chimeric human-mouse MAb E87 (human IgG1), non-modified (antibody, V domains shown, source: HEK-293T, transfected, purified from supernatant (protein A)) VH: QVQLQQPGADLVRPGTSVKLSCKASGYTFTIYWMHWVKQRPGQGLEWIGVIDPSAGYTNYSQNFKDKATLTVDTSSSTAYMQLNSLTSEDSAVYYCARHGHYFGTSYWYFDVWGTGTTVTVSS VL: DIVMSQSPSSLAVSVGEKVTMRCKSSQSLLYSRNQKNYLAWYQQKPGQSPKVLIYWASTRESGVPDRFTGSGSGTDFTLTISSVKTEDLSVYYCQQYYSYPFTFGSGTKLEIK | 1.07 nM
5 | chimeric human-mouse MAb E87 N297Q (human IgG1, aglycosylated) (antibody, V domains shown, source: HEK-293T, transfected, purified from supernatant (protein A)) VH: QVQLQQPGADLVRPGTSVKLSCKASGYTFTIYWMHWVKQRPGQGLEWIGVIDPSAGYTNYSQNFKDKATLTVDTSSSTAYMQLNSLTSEDSAVYYCARHGHYFGTSYWYFDVWGTGTTVTVSS VL: DIVMSQSPSSLAVSVGEKVTMRCKSSQSLLYSRNQKNYLAWYQQKPGQSPKVLIYWASTRESGVPDRFTGSGSGTDFTLTISSVKTEDLSVYYCQQYYSYPFTFGSGTKLEIK | 1.43 nM
6 | chimeric human-mouse MAb E28 (human IgG1), non-modified (antibody, V domains shown, source: HEK-293T, transfected, purified from supernatant (protein A)) VH: QIQLVQSGPELKKPGETVKISCKASGYTFTDYSMHWVKQTPGKGLKWLGWINPKTGEPTYVDDFKGRFAFYLETSSSTAYLQITNLKNEDTATYFCARGYDYYSVDYWGQGTLVTVSS VL: DIQMTQTTSSLSASLGARVTISCRANQDINNYLHWYQQKPDGTIKLLVYYTSGLHSGVPSRFIGSGSGTDYSLTITNLEQEDIATYFCQQGNTLPLTFGAGTKLELK | 2.7 nM
7 | chimeric human-mouse MAb E28 N297Q (human IgG1, aglycosylated) (antibody, V domains shown, source: HEK-293T, transfected, purified from supernatant (protein A)) VH: QIQLVQSGPELKKPGETVKISCKASGYTFTDYSMHWVKQTPGKGLKWLGWINPKTGEPTYVDDFKGRFAFYLETSSSTAYLQITNLKNEDTATYFCARGYDYYSVDYWGQGTLVTVSS VL: DIQMTQTTSSLSASLGARVTISCRANQDINNYLHWYQQKPDGTIKLLVYYTSGLHSGVPSRFIGSGSGTDYSLTITNLEQEDIATYFCQQGNTLPLTFGAGTKLELK | 2.88 nM
8 | chimeric human-mouse MAb E60 (human IgG1), non-modified (antibody, V domains shown, also called intact E60; E60 parent; source: HEK-293T, transfected, purified from supernatant (protein A)) VH: EVQVQQSGPELVTPGASVKISCKTSGYTFTEYTVHWVKQSHGKSLEWIGGINPTSGGTNYNQRFRGKATLTVDRSSSTAYMELRSLTSEDSAVYFCAGTLYGYPFDFWGQGTTLTVSS VL: DILMTQSPSSMSVSLGDSVSITCHASQGISGNIGWLQQKPGKSFKGLIYHGTNLEEGVPSRFSGSGSGADYSLTISSLESEDFADYYCVQYGQFPPTFGGGTKLEIK | 1.14 nM
9 | chimeric human-mouse MAb E60 N297Q (human IgG1, aglycosylated) (antibody, V domains shown, also called modified E60; source: HEK-293T, transfected, purified from supernatant (protein A)) VH: EVQVQQSGPELVTPGASVKISCKTSGYTFTEYTVHWVKQSHGKSLEWIGGINPTSGGTNYNQRFRGKATLTVDRSSSTAYMELRSLTSEDSAVYFCAGTLYGYPFDFWGQGTTLTVSS VL: DILMTQSPSSMSVSLGDSVSITCHASQGISGNIGWLQQKPGKSFKGLIYHGTNLEEGVPSRFSGSGSGADYSLTISSLESEDFADYYCVQYGQFPPTFGGGTKLEIK | 1.18 nM
10 | chimeric human-mouse MAb E44 (human IgG1), non-modified (antibody, V domains shown, source: HEK-293T, transfected, purified from supernatant (protein A)) VH: QVQLKESGPGLVAPSQSLSITCTVSGFSLTSYGVDWVRQSPGKGLEWLGVIWGAGSTNYNSAFRSRLSISKDNSKSQVFLKMNSLQTDDTAMYYCASGTGTGAMDYWGQGTSVTVSS VL: DIVLTQSPATLSVTPGDSVSLSCRASQSISNNLHWYQQKSHESPRLLIFYSSQSISGIPSRFSGSGSGTDFTLRINSVETEDFGMYFCQQSNNWPHTFGRGTKLDMK | 0.14 nM
11 | chimeric human-mouse MAb E44 N297Q (human IgG1, aglycosylated) (antibody, V domains shown, source: HEK-293T, transfected, purified from supernatant (protein A)) VH: QVQLKESGPGLVAPSQSLSITCTVSGFSLTSYGVDWVRQSPGKGLEWLGVIWGAGSTNYNSAFRSRLSISKDNSKSQVFLKMNSLQTDDTAMYYCASGTGTGAMDYWGQGTSVTVSS VL: DIVLTQSPATLSVTPGDSVSLSCRASQSISNNLHWYQQKSHESPRLLIFYSSQSISGIPSRFSGSGSGTDFTLRINSVETEDFGMYFCQQSNNWPHTFGRGTKLDMK | 0.84 nM
12 | chimeric human-mouse MAb E76 (human IgG1), non-modified (antibody, V domains shown, source: HEK-293T, transfected, purified from supernatant (protein A)) VH: QVTLKESGPGILQSSQTLSLTCSFSGFSLSTSSMGVSWIRQPSGKGLEWLAHIYWDDDKRYSPSLKSRLTISKDTSRNQVFLKITSVENVDSATYYCARKDGYVPYSLDYWGQGISVTVSS VL: DIVMTQSHKFMSTSVGDRVSISCKASQAVGTAVAWYQQKPGQSPKLLIYWASTRHTGVPDRFTGSGSGTDFTLTINNVQSEDLADYFCHQYTSYPLTFGTGTKLELK | 0.84 nM
13 | chimeric human-mouse MAb E76 N297Q (human IgG1, aglycosylated) (antibody, V domains shown, source: HEK-293T, transfected, purified from supernatant (protein A)) VH: QVTLKESGPGILQSSQTLSLTCSFSGFSLSTSSMGVSWIRQPSGKGLEWLAHIYWDDDKRYSPSLKSRLTISKDTSRNQVFLKITSVENVDSATYYCARKDGYVPYSLDYWGQGISVTVSS VL: DIVMTQSHKFMSTSVGDRVSISCKASQAVGTAVAWYQQKPGQSPKLLIYWASTRHTGVPDRFTGSGSGTDFTLTINNVQSEDLADYFCHQYTSYPLTFGTGTKLELK | 1.1 nM
14 | human MAb 87.1 LALA (IgG1) (antibody, V domains shown, source: HEK-293T, purified (protein A, size-exclusion chromatography)) VH: EVQLVESGGGLVQPGRSLRLSCAASGFTFDDYAMFWVRQAPGKGLEWISGISWNSATIGYADSVKGRFTISRDNAKKSLDLQMNSLRPDDTALYYCAKGGPRGLQLLSSWVDYWGQGTLVTVSS VL: DIQMTQSPSSLSASVGDRVTITCRASQDIRRYLNWYQQRPGRVPQLLIYTTSTLQSGVPSRFSGSGSVTDFTLTISSLQPEDFGTYYCQQSYSPPHTFGQGTKLEIK | 0.34 nM
